Data: article PMC1420652, “Purified Wnt5a Protein Activates or Inhibits β-Catenin–TCF Signaling Depending on Receptor Context” (PLoS Biology, 2006)
Values belong to the binder of their own block, whether it stands above or below them.

Biological target: T1, purified Wnt5a protein (mouse) (mouse, UniProt P22725 62-380)
T1 construct: Wnt5a, mouse; The protein needs detergent to stay in solution; also called mWnt5a
T1 sequence (looked up): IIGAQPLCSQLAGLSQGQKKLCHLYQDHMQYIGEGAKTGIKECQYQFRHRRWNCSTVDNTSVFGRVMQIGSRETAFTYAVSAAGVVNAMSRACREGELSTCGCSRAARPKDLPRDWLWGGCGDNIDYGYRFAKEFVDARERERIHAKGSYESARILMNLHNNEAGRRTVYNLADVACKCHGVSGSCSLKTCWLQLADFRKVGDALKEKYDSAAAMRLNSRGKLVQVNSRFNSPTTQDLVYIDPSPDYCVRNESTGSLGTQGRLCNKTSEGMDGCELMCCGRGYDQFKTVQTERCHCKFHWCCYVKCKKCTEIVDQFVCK
Assay: pull-down; purified CRD-IgG proteins bound to protein A-Sepharose beads (4 h, 4 °C), incubated overnight at 4 °C with purified Wnt5a protein, washed 4 times with TNT buffer (50 mM Tris-HCl, 150 mM NaCl, 1% Triton X-100), Western blot
Conditions: both partners purified

binding result: binds
B1: mRor2 NT CRD-IgG (Fc fusion)
chain: not shown
notes: signal peptide in the construct; source: 293 cells stably secreting the protein, purified from serum-free conditioned media (protein A column); not shown: immunoglobulin heavy chain domain (IgG), C-terminal, kept

binding result: binds
B2: mRor2 CRD-IgG (Fc fusion)
chain: not shown
notes: source: 293 cells stably secreting the protein, purified from serum-free conditioned media (protein A column); not shown: immunoglobulin heavy chain domain (IgG), C-terminal, kept
